Experiments:
Experiment in all cases: SEC; Superdex-200 on FPLC after TEV removal of the MBP tag; 20 mM NaH2PO4 pH 7.0, 0.3 M NaCl, 1 mM TCEP, 10% glycerol, 0.005% FC-16; 4 °C; mass by regression against gel filtration standards (Bio-Rad); self-association, oligomer size
[1] = molecular target: Bambusa oldhamii cellulose synthase BoCesA1 (Bambusa oldhamii)
[2] = molecular target: Bambusa oldhamii cellulose synthase BoCesA2 (Bambusa oldhamii)
[3] = molecular target: Bambusa oldhamii cellulose synthase BoCesA3 (Bambusa oldhamii)
[4] = molecular target: Bambusa oldhamii cellulose synthase BoCesA4 (Bambusa oldhamii)
[5] = molecular target: Bambusa oldhamii cellulose synthase BoCesA5 (Bambusa oldhamii)
[6] = molecular target: Bambusa oldhamii cellulose synthase BoCesA7 (Bambusa oldhamii)

Bambusa oldhamii cellulose synthase BoCesA1 (enzyme)
stoichiometry N [1]: 6

Bambusa oldhamii cellulose synthase BoCesA2 (enzyme)
stoichiometry N [2]: 6

Bambusa oldhamii cellulose synthase BoCesA3 (enzyme)
stoichiometry N [3]: 6

Bambusa oldhamii cellulose synthase BoCesA4 (enzyme)
stoichiometry N [4]: 6

Bambusa oldhamii cellulose synthase BoCesA5 (enzyme)
stoichiometry N [5]: 6

Bambusa oldhamii cellulose synthase BoCesA7 (enzyme)
stoichiometry N [6]: 6

— publication PMC6657065
